Measured values published in patent US20150182631A1, “SYSTEM FOR […]-BASED ACTIVE INGREDIENTS” (Centre National De La Recherche Scientifique-CNRS, priority 2012, published 2015).

What was measured:
[1] = molecular target: the molecule itself; test: isothermal titration calorimetry, dilution of concentrated XCL into buffer; tetramer-dimer equilibrium; tetramer-dimer equilibrium of XCL by dilution ITC
Experimental: In order to accurately measure the equilibrium constant of tetramerisation and also determine the thermodynamics of the tetramerisation of XCL, the inventors used isothermal titration calorimetry (Burrows et al., (1994) Lovatt et al., (1996) Barranco-Medina et al. (2009)). In this method, a concentrated solution of XCL was diluted in a buffer, and the dissociation heat of the dimers (or of the monomers) was measured. The quantity of heat released for each injection is governed by the enthalpy exchange from the tetramer to the dimer and the tetramer-dimer equilibrium constant.

[2] = Confinement of fluorescein in the lectin cavity; conditions: 4 days at ambient temperature, free fluorescein eliminated again
Experimental: The confinement experiments are carried out by incubating the wild-type protein (XCL) or the mutants (A38C) with the molecule to be tested. In order to carry out the control experiments with the mutant A38C, an oxidation step is carried out in the presence of GSSG in a phosphate buffer 50 mM, 100 mM NaCl, pH 7.2, OVN. The GSSG is then eliminated on a PD-10 sephadex G-25M column (GE Healthcare) pre-balanced in a phosphate buffer 50 mM, 100 mM NaCl, pH 8.5. The eluate is concentred at 1 ml on Vivaspin 15R 30,000 MWCO (Sartorius stedim). A batch of A38C is reduced to TCEP (under argon) with adding of NaOH for a final pH of 8.5. […] The quantity of fluorescein is measured by using an absorption coefficient of e511 nm=75,000 cm^−1 M^−1. The concentrations of XCL and of A38C after the confinement are calculated with e278 nm=[…]. The percentage of confinement is calculated by forming the ratio of the fluorescein/protein concentrations.
In the case with XCL, the inventors incubated the protein (15 μM) with fluorescein (10 mM) and then separated the protein from the non-confined molecules of fluorescein by two successive gel filtration columns. Beforehand, the inventors verified that if these two columns on the fluorescein solution are carried out at 10 mM, no residual free fluorescein is detected. […]

[3] = Chemical dissociation by size exclusion chromatography at acidic pH; assay type: physicochemical
Experimental: The size exclusion chromatography experiments were carried out on a GE-Healthcare Superose 12 PC 3.2/30 column. The columns are pre-balanced in the buffer tested, namely phosphate buffer 50 mM, 100 mM NaCl, pH7.2 or pH 4.4 in the absence or in the presence of 0.003% of SDS. The flow rate is 0.5 mL/min. The BSA and the RNase A are used as a size marker.
The inventors studied the behaviour of XCL in denaturing chemical conditions close to those encountered in the lysosomes. The analysis was carried out via exclusion chromatography with an acidic pH (pH 4.4). It appears that the elution peak of XCL in these denaturing conditions is displaced to greater elution volumes showing the appearance of a smaller size. When 0.003% SDS is added, the elution peak is displaced to the elution volume of the RNAse A which has a molecular weight close to the XCL monomer.
The behaviour of the oxidised mutant A38C was also analysed. […] The addition of the disulphide bridge therefore increases the stability of the protein assembly.

[4] = Balanced FRET, exchange of monomers; assay type: physicochemical; conditions: 1 h incubation, pH 8.5
Experimental: Fluorescence energy transfer was used to reveal the exchange of the XCL monomers. The exchange reaction is initiated by mixing the same volume of XCL-RITC (1 μM or only the buffer as a reference) and of XCL-FITC (1 μM) at 25° C. in 50 mM of phosphate buffer, 100 mM NaCl, pH 8.5. After one hour of incubation, the emission spectrum of the sample excited at 490 nm is recorded by spectrofluorimetry (Photon Technology International QM-4). The same experiments were carried out with A38C-RITC and A38C-FITC.
The oligomerization balance of the XCL protein was characterised by the measurement of the appearance of resonance energy transfer of the Förster type (FRET) between two populations of XCL labelled separately either with FITC (Fluorescein IsoThioCyanate) or with RITC (Rhodamine IsoThioCyanate).
In this same figure, is also shown the spectrum obtained by mixing the labelled protein, either by the donor or by the acceptor (dotted line curve). This spectrum was deconvoluted, which gives the spectra shown as a dotted line in FIG. 2A.
For the purposes of comparison, the same experiment was carried out with the variant A38C. This variant is covalently bonded by two additional disulphide bridges. A perfectly superimposable spectrum was obtained after mixing donor and acceptor labelled proteins and incubation of this mixture for 1 h at ambient temperature (dotted lines of FIG. 3B).

[5] = SDS-PAGE of tetramer and disulphide bridge stability; assay type: physicochemical; conditions: reduced glutathione 10 mM in oxidation buffer
Experimental: The clone A38C was obtained by directed mutagenesis by using the XCL plasmid as a matrix and the protein produced and purified by using the same protocol as that used to produce XCL (Trigueros et al. (2003)). A yield of 25 mg of purified protein per litre of culture was obtained. The last part of the protocol consisted in a step of oxidation for 12 hours in the presence of 10 mM of oxidised glutathione. This step is required in order to produce disulphide bridges between the monomers. The forming of these covalent bonds was verified by SDS-PAGE. Two SDS-PAGE were prepared. Beta-mercaptoethanol was added to the samples in the first gel while beta-mercaptoethanol was not added to the second gel. When XCL is heated to 95° C. 5 min before the deposit, a single band is observed with a molecular weight slightly greater than 20 kDa on the two gels. This band corresponds to the species in monomer form.
A variant T12C was produced in the same manner as A38C by directed mutagenesis by using the XCL plasmid as a matrix. By using the same protocol, 10 mg of protein per litre of culture were produced. The oxidation rate of the variant T12C was sought by using the same method by SDS-PAGE as for A38C. These rates were compared with those obtained with the variant A38C. Several oxidative conditions were tested with different concentrations of reduced glutathione. […]

[6] = molecular target: the molecule itself; test: size exclusion chromatography at pH 7.2 and pH 4.4; tetramer kept
Experimental: The behaviour of the oxidised mutant A38C was also analysed. […] When the pH is decreased to 4.4, no modification in the elution volume is observed. The addition of the disulphide bridge therefore increases the stability of the protein assembly. The adding of 0.003% SDS leads to the dissociation of the tetramer into dimers, constituted of monomers bonded together by the disulphide bridge.

[7] = molecular target: T1, XCL labelled with RITC (Xerocomus chrysenteron, RITC on surface epsilon-amino groups, 0.9 mol of RITC per mol of XCL); test: FRET kinetics at 580 nm after mixing XCL-FITC and XCL-RITC, double exponential fit; fast dissociation of the tetramer; k2, faster of the two dissociation pathways of the tetramer
T1 construct: FRET acceptor population of XCL; also called RITC-XCL; XCL-RITC
T1 chain: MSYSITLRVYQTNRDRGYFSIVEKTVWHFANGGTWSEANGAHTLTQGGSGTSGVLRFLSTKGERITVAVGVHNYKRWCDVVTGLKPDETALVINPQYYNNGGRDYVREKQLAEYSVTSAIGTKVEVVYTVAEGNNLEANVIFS
Experimental: (§1) The speed of the exchange of subunits was measured by the same technique. The reaction is initiated by mixing the same volume of XCL-RITC (1 μM) and of XCL-FITC (1 μM) at 25° C. in 50 mM of phosphate buffer, 100 mM NaCl, pH 8.5. The excitation is carried out at 468 nm and the fluorescence emission at 580 nm is recorded every 0.5 seconds. The fluorescence intensity is normalised by using the equation: […]

[8] = molecular target: T1, XCL labelled with RITC; test: FRET kinetics at 580 nm after mixing XCL-FITC and XCL-RITC, double exponential fit; slow dissociation of the tetramer (proportion a=0.39); k1, slower of the two dissociation pathways of the tetramer
Experimental: as §1

B1: Xerocomus chrysenteron lectin (XCL) (other)
chain: MSYSITLRVYQTNRDRGYFSIVEKTVWHFANGGTWSEANGAHTLTQGGSGTSGVLRFLSTKGERITVAVGVHNYKRWCDVVTGLKPDETALVINPQYYNNGGRDYVREKQLAEYSVTSAIGTKVEVVYTVAEGNNLEANVIFS
notes: Recombinant fungal lectin, a homotetramer in solution; also called wild-type protein; native XCL protein
B1 showed a Kd [1] of 4.5 µM.

B2: A38C: XCL variant with alanine 38 replaced by cysteine, SEQ ID NO: 2; A38R reduced before confinement, A38NR not reduced, A38Cox oxidised (protein)
chain: MSYSITLRVYQTNRDRGYFSIVEKTVWHFANGGTWSECNGAHTLTQGGSGTSGVLRFLSTKGERITVAVGVHNYKRWCDVVTGLKPDETALVINPQYYNNGGRDYVREKQLAEYSVTSAIGTKVEVVYTVAEGNNLEANVIFS
modifications: Variant A38C
notes: A38R reduced before confinement, A38NR not reduced, A38Cox oxidised
In the case of B2, the “confinement rate after incubation” value [2] is reported as “remained unchanged”, the “oligomeric state by elution volume at pH 4.4 with SDS” value ([3]; pH 4.4, 0.003% SDS) is reported as “dissociation of the tetramer into dimers” and the “oligomeric state by elution volume at pH 4.4” value ([3]; pH 4.4, no SDS) is reported as “no modification in the elution volume is observed”. The “FRET between FITC- and RITC-labelled protein after mixing (monomer redistribution)” value [4] was “no FRET is observed”.

B3: T12C: XCL variant with threonine 12 replaced by cysteine, SEQ ID NO: 3 (protein)
chain: MSYSITLRVYQCNRDRGYFSIVEKTVWHFANGGTWSEANGAHTLTQGGSGTSGVLRFLSTKGERITVAVGVHNYKRWCDVVTGLKPDETALVINPQYYNNGGRDYVREKQLAEYSVTSAIGTKVEVVYTVAEGNNLEANVIFS
modifications: Variant T12C
In the case of B3, the “stability of the additional disulphide bridge” value [5] is reported as “less stable than the disulphide bridge of A38C”.

B4: XCL variant A38C, oxidised (other)
chain: MSYSITLRVYQTNRDRGYFSIVEKTVWHFANGGTWSECNGAHTLTQGGSGTSGVLRFLSTKGERITVAVGVHNYKRWCDVVTGLKPDETALVINPQYYNNGGRDYVREKQLAEYSVTSAIGTKVEVVYTVAEGNNLEANVIFS
modifications: interchain disulphide bridge between Cys 38 of opposite monomers (oxidised with GSSG)
notes: Homotetramer with two added disulphide bridges that link monomers diagonally; In the FRET experiment it was labelled with FITC or RITC; also called mutant A38C; oxidised mutant A38C
B4: binds [6].

B5: XCL labelled with FITC (other)
chain: MSYSITLRVYQTNRDRGYFSIVEKTVWHFANGGTWSEANGAHTLTQGGSGTSGVLRFLSTKGERITVAVGVHNYKRWCDVVTGLKPDETALVINPQYYNNGGRDYVREKQLAEYSVTSAIGTKVEVVYTVAEGNNLEANVIFS
modifications: FITC on surface epsilon-amino groups, 4 mol of FITC per mol of XCL
notes: FRET donor population of XCL; also called FITC-XCL; XCL-FITC
For B5, the koff [7] was 0.042 s⁻¹ and the koff [8] was 0.012 s⁻¹.
